The target in the test is T1, aCBF5 (P. abyssi, UniProt Q9V1A5 1-334).
T1 construct: aCBF5, archaeal H/ACA sRNP pseudouridine synthase, P. abyssi; also called pseudouridine synthase aCBF5; source: purified recombinant proteins
T1 sequence (looked up): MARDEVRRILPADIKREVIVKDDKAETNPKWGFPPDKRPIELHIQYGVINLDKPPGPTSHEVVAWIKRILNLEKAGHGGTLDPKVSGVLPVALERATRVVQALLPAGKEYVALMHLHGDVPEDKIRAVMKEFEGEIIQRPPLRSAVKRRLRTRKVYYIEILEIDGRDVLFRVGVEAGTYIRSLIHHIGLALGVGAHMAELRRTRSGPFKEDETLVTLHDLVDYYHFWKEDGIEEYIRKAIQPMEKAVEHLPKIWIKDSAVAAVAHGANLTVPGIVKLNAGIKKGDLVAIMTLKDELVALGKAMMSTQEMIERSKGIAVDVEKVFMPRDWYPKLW
Put plainly: native gel or EMSA; 32P 5' end-labelled sRNA Pab21 or Pab91 (~50 fmol) incubated with the proteins (200 nM each) in buffer D (150 mM KCl, 1.5 mM MgCl2, 0.2 mM EDTA, 20 mM HEPES pH 7.9) at 65°C for 10 min; non-denaturing polyacrylamide gel; the proteins are seen only through the shift of the labelled sRNA. The conditions noted are these: both partners purified. On the technique in general: A gel shift assay detects complexes by their altered migration in electrophoresis.

B1: aNOP10 (natural protein, P. abyssi, UniProt Q9V0E3 1-60, looked up)
chain: MRFRIRKCPKCGRYTLKETCPVCGEKTKVAHPPRFSPEDPYGEYRRRLKRELLGIGRKEK
notes: aNOP10, archaeal H/ACA sRNP core protein, P. abyssi; source: purified recombinant proteins
As for B1, the binding result was “binds”.

B2: aNOP10 Y41A/Y44A (natural protein, P. abyssi, UniProt Q9V0E3 1-60, looked up)
chain: MRFRIRKCPKCGRYTLKETCPVCGEKTKVAHPPRFSPEDPAGEARRRLKRELLGIGRKEK
notes: aNOP10, P. abyssi, with two alanine substitutions in helix alpha1; also called aNOP10 mutant Y41A/Y44A; source: purified recombinant proteins
For B2, the binding result is on record as “binds”.

These data come from paper PMC3726423, “Comparative Study of Two Box H/ACA Ribonucleoprotein Pseudouridine-Synthases: Relation between Conformational Dynamics of the Guide RNA, Enzyme Assembly and Activity” (PLoS ONE, 2013).
